Assay [1] has as its target 重组Grb2蛋白 (recombinant Grb2 protein) (UniProt P62993). As to the kind of experiment: ELISA, recombinant Grb2 coated, antibody 100 ng/mL, goat anti-human IgG Fc-HRP secondary. Background: An ELISA detects its analyte on a solid surface through an enzyme-linked reagent.
For assay [2] the target is unchanged. The assay is described as follows: ELISA, recombinant Grb2 coated, antibody 100 ng/mL, goat anti-mouse IgG Fc-HRP secondary (does not detect human IgG).

From patent CN110563841A come the findings set out here.

Chain of UniProt P62993 (P62993 whole entry): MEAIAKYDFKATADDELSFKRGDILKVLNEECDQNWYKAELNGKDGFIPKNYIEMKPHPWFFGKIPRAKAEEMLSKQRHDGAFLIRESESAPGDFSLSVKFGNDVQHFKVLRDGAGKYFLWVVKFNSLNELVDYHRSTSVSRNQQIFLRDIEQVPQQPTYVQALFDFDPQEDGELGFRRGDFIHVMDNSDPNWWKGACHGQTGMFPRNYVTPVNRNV

With “人IgG1 (irrelevant human IgG1 control antibody)”, the OD490 in assay [1] and in assay [2] was 0.073 throughout.
